The test system of the assay is Arm-Tcf transcriptional activity. Nature of the assay: Tcf-reporter gene (TOPFLASH luciferase) assay in HEK293 cells. Type of assay: cell-based. As to conditions: 4 ng pcDNA3-ΔArm, 200 ng pcDNA3-EGFP-hLgs-peptide, 48 h after transfection, normalized for renilla luciferase. How it is done: FIG. 15(A) Effect of the expression of Lgs sequence homology 2-peptides on Tcf transcriptional activity. HEK293 cells at 50% confluence were plated into 24-well plates and transfected by a lipofection method. 240 ng of TOPFLASH luciferase reporter plasmid (Upstate biotechnology, New York, USA), 4 ng of pcDNA3-ΔArm, 200 ng of pcDNA3-EGFP-Lgs-peptide and 10 ng of a renilla luciferase reporter plasmid pRL-SV40 (Promega Corporation, Madison USA) were diluted into 25 μl of OPTI-MEM Medium (Life Technologies, Inc.) and combined with 1.2 μl of Lipofectamine (Life Technologies, Inc.) in 25 μl OPTI-MEM. After incubation for 20 min, 0.175 ml of OPTI-MEM was added and the mixtures were overlaid onto monolayers of cells. After culturing at 37° C./5% CO2 for 6 hr, 0.225 ml of OPTI-MEM containing 20% FCS was added to the cultures. […]
The effect of Lgs on Tcf transactivation activity can be performed in a cell culture system using a Tcf reporter gene. A Tcf-responsive reporter gene is a contruct which comprises a readily detectable or assayable gene such β-galactosidase, green fluorescent protein, chloramphenicol acetyltransferase or luciferase, linked in cis to a Tcf response element and a minimal promoter. […]
A general note: In a reporter assay the amount or activity of a reporter protein is the signal.

B1: hLgs/Bcl9(279–392): Fragment (amino acids 279–392) of human Lgs/Bcl9 with a sequence homology domain, expressed as EGFP fusion from pcDNA3 (protein)
chain: PGVENKLIPSVGSPASSTPLPPDGTGPNSTPNNRAVTPVSQGSNSSSADPKAPPPPPVSSGEPPTLGENPDGLSQEQLEHRERSLQTLRDIQRMLFPDEKEFTGAQSGGPQQNP
modifications: left off: large carriers
As to B1, the “Arm-Tcf transcriptional activity (Tcf-driven luciferase)” value is reported as “strongly inhibit”.

B2: hLgs/Bcl9(199–392): Fragment (amino acids 199–392) of human Lgs/Bcl9 with a sequence homology domain, expressed as EGFP fusion from pcDNA3 (protein)
chain: TIVSFHIQNISNNKTERSTAPLNTQISALRNDPKPLPQQPPAPANQDQNSSQNTRLQPTPPIPAPAPKPAAPPRPLDRESPGVENKLIPSVGSPASSTPLPPDGTGPNSTPNNRAVTPVSQGSNSSSADPKAPPPPPVSSGEPPTLGENPDGLSQEQLEHRERSLQTLRDIQRMLFPDEKEFTGAQSGGPQQNP
modifications: left off: large carriers
Consider B2, for which the “Arm-Tcf transcriptional activity (Tcf-driven luciferase)” value is on record as “strongly inhibit”.
